Data as given in article PMC10167226, “Short hydrophobic loop motifs in BRICHOS domains determine chaperone activity against amorphous protein aggregation but not against amyloid formation” (Communications Biology, 2023).
Positions count from the first letter of the chain named. In names and notes the source's numbering stands. One block for each binder: values may come before it.

Key:
[1] = biological target: the molecule itself; experiment: SEC; analytical SEC of isolated oligomers, Superdex 200 increase, 10 µmol/L protein in 20 mmol/L NaPi, 0.2 mmol/L EDTA, pH 8.0; number of subunits estimated from the peak maximum and its full width at half maximum
[2] = biological target: T1, porcine heart citrate synthase (pig, UniProt P00889 28-464); experiment: SEC; 0.6 µmol/L CS incubated with 6 µmol/L rh Bri2 BRICHOS oligomers in 40 mmol/L HEPES/KOH pH 7.5 at 45 °C, then Superose 6 in 20 mmol/L NaPi pH 8.0, 0.2 mmol/L EDTA; fractions by SDS-PAGE (two bands) and native PAGE (one band); negative-stain EM of the complex; conditions: both partners purified
T1 construct: citrate synthase from porcine heart; Partly unfolded by incubation at 45 °C when it meets the chaperone; also called CS; source: bought: Sigma-Aldrich (porcine heart)
T1 sequence (looked up): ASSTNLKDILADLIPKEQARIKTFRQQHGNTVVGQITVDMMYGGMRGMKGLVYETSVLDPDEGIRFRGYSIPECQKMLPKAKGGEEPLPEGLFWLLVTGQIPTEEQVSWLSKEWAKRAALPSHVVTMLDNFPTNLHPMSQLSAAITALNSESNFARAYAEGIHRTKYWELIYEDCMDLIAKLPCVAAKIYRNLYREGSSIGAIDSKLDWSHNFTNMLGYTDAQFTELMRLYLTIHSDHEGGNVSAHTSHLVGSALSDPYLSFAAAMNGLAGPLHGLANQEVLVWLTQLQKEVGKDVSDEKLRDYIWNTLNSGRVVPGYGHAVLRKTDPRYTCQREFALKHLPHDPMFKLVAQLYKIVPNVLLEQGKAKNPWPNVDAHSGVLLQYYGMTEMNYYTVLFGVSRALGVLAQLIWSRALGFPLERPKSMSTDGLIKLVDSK

binding result [2]: binds
B1: recombinant human Bri2 BRICHOS domain, wild type (domain or fragment, UniProt Q9Y287 113-231, looked up)
chain: QTIEENIKIFEEEEVEFISVPVPEFADSDPANIVHDFNKKLTAYLDLNLDKCYVIPLNTSIVMPPRNLLELLINIKAGTYLPQSYLIHEHMVITDRIENIDHLGFFIYRLCHDKETYKL
notes: human Bri2, BRICHOS domain, residues 113 to 231; Also exists as monomers and dimers; the oligomer fraction was used with CS; also called wt Bri2 BRICHOS; rh Bri2 BRICHOS; source: recombinant, modified pET32 vector with His6-NT* tag; copies: about 18-30 (oligomers, estimated by SEC)
stoichiometry N [1]: 18 to 30 subunits

B2: rh Bri2 BRICHOS T206W (domain or fragment, human, UniProt Q9Y287 113-231, looked up)
chain: B1 chain with T94W
notes: also called T206W mutant; source: recombinant, modified pET32 vector with His6-NT* tag
binding result [1]: binds
